The target of the assay is HLA-A*01:01 (Homo sapiens, UniProt P04439, A114D/A174V/A182V/D101N/D185E/E176A/E190D/L180R/Q94H/R68K/S129P/T187R/V100A/V91M/W191G). The assay is described as follows: MHC binding assay: UV-ligand exchange, ELISA of stabilized MHC complexes (peptide exchange yield). To be noted: binding to HLA-A*01:01, UV-ligand exchange. The gist of the method: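 Peptide–MHC complexes were formed by UV-induced exchange of a photocleavable ligand for the test peptide. Exchange yield was measured by streptavidin-capture ELISA of 100-fold diluted complexes, detected with HRP anti-β2m at A450. Refolded HLA-A*02:01/MLA-001 monomers at 15-500 ng/ml served as standards.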
For orientation: In an ELISA, binding on a coated surface is turned into a signal by an enzyme label.
For “235 (SIEIDHTQY; listed as Homo sapiens) [compound 235]”, the Peptide exchange result is reported as “++ (>20% = ++)”. Regarding “236 (VLDSLLAQY; listed as Homo sapiens) [compound 236]”, the Peptide exchange result is on record as “++++ (>75% = ++++)”. Turning to “237 (AQEAAVFLTLY; listed as Homo sapiens) [compound 237]”, the Peptide exchange result was “+++ (>50 = +++)”. As to “238 (ETDWGLLKGHTY; listed as Homo sapiens) [compound 238]”, the Peptide exchange result is “++++ (>75% = ++++)”. In the case of “239 (SSERGSPIEKY; listed as Homo sapiens) [compound 239]”, the Peptide exchange result is recorded as “+++ (>50 = +++)”. Take “240 (EVLDSLLAQY; listed as Homo sapiens) [compound 240]”: the Peptide exchange entry is given as “++ (>20% = ++)”.

For “241 (SLMVASLTY; listed as Homo sapiens) [compound 241]”, the Peptide exchange entry is “++ (>20% = ++)”. In the case of “242 (GTNLPTLLW; listed as Homo sapiens) [compound 242]”, the Peptide exchange result is recorded as “+ (>10% =+)”. As to “243 (LTSEDTGAY; listed as Homo sapiens) [compound 243]”, the Peptide exchange entry is “+++ (>50 = +++)”. The result for “244 (VTKYIAGPY; listed as Homo sapiens) [compound 244]” reads “++ (>20% = ++)”; that for “245 (LSDNAANRY; listed as Homo sapiens) [compound 245]”, “+++ (>50 = +++)”. Consider “246 (ARLEGEIATY; listed as Homo sapiens) [compound 246]”, for which the Peptide exchange result is reported as “++ (>20% = ++)”. On to “247 (SMIRVGTNY; listed as Homo sapiens) [compound 247]”, for which the Peptide exchange result is “++ (>20% = ++)”. The result for “248 (VTDIDELGK; listed as Homo sapiens) [compound 248]” reads “+++ (>50 = +++)”. Consider “249 (GVGFTELEY; listed as Homo sapiens) [compound 249]”, for which the Peptide exchange entry is “+++ (>50 = +++)”. Take “250 (GYVCNACGLY; listed as Homo sapiens) [compound 250]”: the Peptide exchange entry was “++ (>20% = ++)”. As for “251 (GIEMTYETY; listed as Homo sapiens) [compound 251]”, the entry is “++ (>20% = ++)”. Regarding “252 (DTTSHTYLQY; listed as Homo sapiens) [compound 252]”, the Peptide exchange result is listed as “++ (>20% = ++)”. With “253 (YLESHGLAY; listed as Homo sapiens) [compound 253]”, the Peptide exchange result is listed as “++++ (>75% = ++++)”. For “254 (FLFNDALLY; listed as Homo sapiens) [compound 254]”, the Peptide exchange result is given as “++++ (>75% = ++++)”.

Take “255 (WELDSLEY; listed as Homo sapiens) [compound 255]”: the Peptide exchange result is listed as “++ (>20% = ++)”. For the substance “256 (HAFESNNFIY; listed as Homo sapiens) [compound 256]”, the Peptide exchange result is recorded as “++ (>20% = ++)”. “257 (KSEMNVNMKY; listed as Homo sapiens) [compound 257]”: the Peptide exchange entry was “++++ (>75% = ++++)”. Regarding “258 (RPSSVLTIY; listed as Homo sapiens) [compound 258]”, the Peptide exchange result is “+++ (>50 = +++)”. As to “259 (APDEVVALL; listed as Homo sapiens) [compound 259]”, the Peptide exchange result is “++ (>20% = ++)”. On to “260 (KPTEDSANVY; listed as Homo sapiens) [compound 260]”, for which the Peptide exchange entry was “+++ (>50 = +++)”.

For the substance “261 (MTEGSTVNTEY; listed as Homo sapiens) [compound 261]”, the Peptide exchange entry is on record as “++++ (>75% = ++++)”. Regarding “262 (NVKHFLNDLY; listed as Homo sapiens) [compound 262]”, the Peptide exchange entry is “+++ (>50 = +++)”.

Take “263 (DCMDTEGSYM; listed as Homo sapiens) [compound 263]”: the Peptide exchange entry was “++ (>20% = ++)”. With “264 (YRDPVFVSL; listed as Homo sapiens) [compound 264]”, the Peptide exchange result is on record as “++ (>20% = ++)”.

The values above are taken from patent US12195506B2, “Immunotherapy with A*01 restricted peptides and combination of peptides against cancers and related methods” (Immatics Biotechnologies GmbH, priority 2018, dated 2025).
